The values that follow are results of earlier work, collected in publication PMC7288020.

In this data set the target is Aβ1-40 Aβ 1-40 (Homo sapiens) (UniProt P05067).
Chain of UniProt P05067 (P05067 1-40): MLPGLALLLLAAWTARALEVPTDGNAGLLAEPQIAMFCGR

As for ApoA1 (from UniProt P02647), the Kd is 6 nM.
